Laboratory results: US20230080534A1, “SEMG2 ANTIBODY AND USE THEREOF” (SHANGHAI BIOTROY BIOTECHNIQUE CO., LTD., priority 2020, published 2023)

Key:
[1] = system: LOVO human colorectal cancer cells; experiment: Tumor cell killing by activated PBMC, caspase-3/7 apoptosis; type: cell-based; conditions: SEMG2-positive, co-culture with activated PBMC 10:1
Description: (§1) To test the above hypothesis, the effects of different epitope-specific antibodies on tumor cell killing by activated PBMC were compared. Specifically, A375 human melanoma and LOVO human colorectal cancer cells highly expressing SEMG2 were seeded in 96-well plate. Human peripheral blood mononuclear cells (PBMC; #70025, Stem Cell) were activated with 100 ng/mL of CD3 antibody, 100 ng/mL, of CD28 antibody, and 1.0 ng/mL of IL2 (#317303; #302913; #589102, BioLegend), respectively, and co-cultured with the above tumor cells at a ratio of 10:1 in presence of fluorescent caspase-3/7 substrate (#4440, Essen Bioscience). After 1.0 hours, cells were observed under fluorescence microscope.
(§2) To verify the above hypothesis, tumor cells with high SEMG2 expression (A375, LOVO) and SEMG2-negative tumor cells (DLD1, NCM460 and NCI-H1975) were selected. Different antibodies (irrelevant mouse IgG antibodies, MM02 or MM05 antibodies) were added during the PBMC killing experiments for the tumor cells.
(§3) To verify the effect of the human antibodies on the function of activated PBMC on tumor cell killing, A375 and LOVO cells were co-cultured with activated PBMC, and H88-93, H88-96, or H88-67 antibody was added at the same time, and the apoptosis ratio of tumor cells were detected.

[2] = system: A375 human melanoma cells; experiment: as above; type: cell-based; conditions: A375, SEMG2-positive, co-culture with activated PBMC 10:1
Description: as §1, §2, §3

[3] = biological target: T1, binding between SEMG2 and CD27 (Homo sapiens, UniProt Q02383); experiment: Antibody blocking ELISA of SEMG2 binding to CD27-Fc; conditions: antibody 10 μg/mL
T1 sequence (Q02383 24-582): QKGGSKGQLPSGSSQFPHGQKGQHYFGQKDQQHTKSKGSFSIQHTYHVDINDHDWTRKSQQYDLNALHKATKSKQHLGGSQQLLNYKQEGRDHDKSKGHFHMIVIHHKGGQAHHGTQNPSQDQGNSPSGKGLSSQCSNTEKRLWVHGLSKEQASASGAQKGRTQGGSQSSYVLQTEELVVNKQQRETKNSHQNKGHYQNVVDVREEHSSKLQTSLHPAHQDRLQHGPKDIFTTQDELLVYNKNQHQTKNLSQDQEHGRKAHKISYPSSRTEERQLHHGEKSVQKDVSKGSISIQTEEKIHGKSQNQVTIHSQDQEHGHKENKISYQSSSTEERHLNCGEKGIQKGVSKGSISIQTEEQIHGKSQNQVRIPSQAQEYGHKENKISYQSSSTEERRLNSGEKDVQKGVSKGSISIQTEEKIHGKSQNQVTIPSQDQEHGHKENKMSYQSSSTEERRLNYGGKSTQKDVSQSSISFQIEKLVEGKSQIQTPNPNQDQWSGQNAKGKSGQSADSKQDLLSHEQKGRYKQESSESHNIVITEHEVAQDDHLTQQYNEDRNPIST
From the text: Because SEMG2 (497-509) sequence fragment is the key epitope of SEMG2 binding to CD27, and has a relatively short sequence, so SEMG2 (497-509) was used as an immunogen to prepare antibodies, which is theoretically easier to obtain functional antibody molecules with the function of blocking the binding between SEMG2 and CD27 than using full-length SEMG2 to prepare antibodies. For direct comparison, the differences in effective concentration of producing antibody by the two methods were verified using ELISA in the examples. Antibodies produced with SEMG2 (497-509) as immunogen and antibodies produced with full-length SEMG2 were added into the enzyme-linked immunosorbent assay (ELISA) reaction system at different concentrations (10^-2, 10^-1, 10^0, 10^1, 10^2, 10^3, 10^4 μg/mL), and the ELISA binding values were measured. The specific steps of enzyme-linked immunosorbent assay are as follows: (1) Dissolve SEMG2 protein antigen with 50 mM carbonate coating buffer (pH 9.6) to make the antigen concentration 10 μg/mL, and add into 96-well ELISA plate (purchased from Corning) at 100 μL/well, place at 4° C. overnight. (2) After discarding the coating solution on the next day, wash with PBST for three times, add 150 μL of 1% BSA to each well, and block for 2 hours at 37° C. […] (4) After washing for 5 times with PBST, add 100 of diluted HRP-labeled anti-human Fe secondary antibody, and incubate at 37° C. for 1 hour. (5) After washing with PBST for 5 times, 20 min after developing with chromogenic agent, the A450 absorption value was read using the microplate reader.
The SEMG2 (497-509) sequence was used to synthesize a polypeptide and coupled to a VLP carrier for immunization; HEK293 cells were used to express the full-length SEMG2 protein, and the purity was tested to reach 92%, and the binding activity of SEMG2 protein to CD27 was verified by ELISA. The protein and polypeptide antigens were used to immunize 10 mice respectively, and multiple immunizations were performed to enhance the effect: (1) The first immunization, 50 μg/mice of antigen, multiple subcutaneous injections together with Freund's complete adjuvant, with an interval of 3 weeks; (2) the second immunization; the same dosage and route as above, with incomplete Freund's adjuvant, and with an interval of 3 weeks; (3) the third immunization, the same dosage as above, without adjuvant, intraperitoneal injection with an interval of 3 weeks; (4) the booster immunization, the dose is 50 μg, intraperitoneal injection. 3 days after the last injection, blood was collected to measure its titer and the immune effect, and mice with higher titers were selected for hybridoma fusion screening. After subcloning, the binding of the monoclonal antibodies to the target antigens was detected by ELISA, and the function of different monoclonal antibodies in blocking the binding between SEMG2 and CD27 was measured by ELISA.
First, SEMG2(497-509) epitope-specific antibodies (for example, MM02, MM05) were compared with other epitope-specific antibodies (for example, HPA042767) for their function in blocking binding between SEMG2 and CD27 at different concentration ranges. […] The blocking function of different antibodies (irrelative mouse IgG, MM02, MM05, HPA042767) on binding between SEMG2 and CD27 was analyzed by the ELISA experiment as described in Example 11.
Further, the effects of different antibodies on the binding between SEMG2 and CD27 were compared under the condition of the same antibody concentration. In the ELISA, the same concentration (10 μg/mL) of antibody was used, and the strength of the binding between SEMG2 and CD27 was measured. […]

SEMG2 = biological target: T2, SEMG2 (Homo sapiens, UniProt Q02383); experiment: Competition ELISA of fully human antibody with murine antibodies for SEMG2; type: binding; conditions: concentration gradient of fully human antibody mixed with murine antibody
T2 sequence (Q02383 24-582): T1 sequence (Q02383 24-582)
Description: The binding abilities of fully human antibodies and murine antibodies to SEMG2 were tested, that is, murine antibodies MM02 and MM05 and concentration gradient diluted filly human antibodies H88-93 were mixed and added as primary antibodies in a 96-well microplate coated with SEMG2. Murine monoclonal antibody bound to SEMG2 was measured using anti-mouse HRP secondary antibody. The blocking percentage is calculated according to the following formula:
Blocking percentage=[1−(A450 of experimental antibody group-Blank control)/(A450 of positive control antibody−A450 of empty control)]×100%

SEMG2(497-509) fragment = biological target: T3, SEMG2(497-509) fragment (Homo sapiens, UniProt Q02383); experiment: ELISA binding of antibodies to SEMG2(497-509) epitope
T3 construct: SEMG2(497-509) fragment and SEMG2(563-574) fragment were immobilized on the ELISA plate; made in house; host or cells: chemical synthesis
Description: Specifically, SEMG2 full-length protein (1-582), SEMG2(354-403) fragment, SEMG2(442-453) fragment, SEMG2(497-509) fragment and SEMG2(563-574) fragment were immobilized on the ELISA plate, and the same concentration of antibodies (MM02, MM05, MM07, MM08, MM13, MM14, HPA042767 and HPA042835) were added. Anti-mouse or anti-rabbit secondary antibodies were then used to detect the corresponding bound antibodies. MM02, MM05, MM07, MM08, MM13, and MM14 all bound to SEMG2(497509) epitope, HPA042767 bound to SEMG2 (354-403) epitope, and HPA042835 bound to […], while none of the antibodies bound to SEMG2 (442-453) control fragment.
Specifically, the preparation of polypeptide antigens and the screening of human natural antibody library were firstly performed. The SEMG2(497-509) polypeptide was synthesized and coupled to BSA and KLH, respectively, and screened in a fully human phage display antibody library. ELISA was used to select clones that bind to antigenic epitopes for preliminary screening. Different unique sequences were obtained after sequencing single colonies, sorted according to affinity sorting, and full-length antibodies were constructed from antigen-binding fragments (Fab) with relatively high affinity. The binding ability and blocking function tests were performed after purification, that is, the effect of the antibody on binding between SEMG2 and CD27 was determined by the ELISA experiment.

B1: H88-93: fully human antibody from phage library against SEMG2(497-509), VH SEQ ID NO:55, VL SEQ ID NO:58 (antibody, V domains shown)
VH: QITLKESGPTLVKPTQTLTLTCNFSGFSLTTSGVGVAWIRQPPGKALEWLALIYWDDDQRYSPSLKSRLSVTKHTSKDQVVLTMTNVGPVDTATYYCAHLSYGPGWGYYMDVWGNGTMVTVSS
VL: EIVLTQSPGTLSLSPGERASLSCRASQSVRNNYLAWYQQKPGQAPRLLIFGASNRATGIPDTFSGSGSGTDFTLTISRLEPEDFAVYYCQQYGHSPITFGQGTRLEIK
modifications: UNSURE (1)..(123) VH; UNSURE (1)..(108) VL
**Q.** With B1 as the molecule, how does the “apoptosis tumor cell ratio / killing by activated PBMC” value [1] read?
**A.** significantly promote the killing

**Q.** What about the “apoptosis tumor cell ratio / killing by activated PBMC” value [2] of the same molecule?
**A.** significantly promote the killing

**Q.** And the “effect on the binding between SEMG2 and CD27” value [3]?
**A.** inhibited the binding

**Q.** What about the “competition with MM02 and MM05 for binding to SEMG2” value (SEMG2) of the same molecule?
**A.** competes

**Q.** What about the “binding to SEMG2(497-509) epitope” value (SEMG2(497-509) fragment) of the same molecule?
**A.** bind
